The source of these data is patent US20100330578 (published 2010).

This data set has as its target human alpha-thrombin (Homo sapiens, UniProt P00734;P00734 P00734:328-363,P00734:364-622). Description: MST; 100 nM aptamer titrated with 0-16580 nM thrombin; 10% human serum, 1x SSC (150 mM NaCl, 15 mM Na3-citrate, pH 7.2), 5 mM KCl, 1 mM CaCl2, 1 mM MgCl2; IR-laser t.

B1: Cy5-labelled thrombin DNA aptamer (ssDNA)
DNA: TGGTTGGTGTGGTTGGT
As for B1, the binding result is on record as “binds”.
